According to patent US5591825A, “Interleukin 4 signal transducers” (Tularik, Inc., priority 1994, dated 1997):
Non-standard residues stand in square brackets, D forms with d. pY = N[C@@H](Cc1ccc(OP(=O)(O)O)cc1)C(=O)O

Target: T1, IL-4 Stat (Homo sapiens, UniProt P42226)
T1 construct: Samples of nuclear extract prepared from IL-4 induced Thp-1 cells were incubated with individual phosphopeptides; endogenous in cells; host or cells: Thp-1 cells, IL-4 induced, nuclear extract
T1 sequence (P42226 1-847): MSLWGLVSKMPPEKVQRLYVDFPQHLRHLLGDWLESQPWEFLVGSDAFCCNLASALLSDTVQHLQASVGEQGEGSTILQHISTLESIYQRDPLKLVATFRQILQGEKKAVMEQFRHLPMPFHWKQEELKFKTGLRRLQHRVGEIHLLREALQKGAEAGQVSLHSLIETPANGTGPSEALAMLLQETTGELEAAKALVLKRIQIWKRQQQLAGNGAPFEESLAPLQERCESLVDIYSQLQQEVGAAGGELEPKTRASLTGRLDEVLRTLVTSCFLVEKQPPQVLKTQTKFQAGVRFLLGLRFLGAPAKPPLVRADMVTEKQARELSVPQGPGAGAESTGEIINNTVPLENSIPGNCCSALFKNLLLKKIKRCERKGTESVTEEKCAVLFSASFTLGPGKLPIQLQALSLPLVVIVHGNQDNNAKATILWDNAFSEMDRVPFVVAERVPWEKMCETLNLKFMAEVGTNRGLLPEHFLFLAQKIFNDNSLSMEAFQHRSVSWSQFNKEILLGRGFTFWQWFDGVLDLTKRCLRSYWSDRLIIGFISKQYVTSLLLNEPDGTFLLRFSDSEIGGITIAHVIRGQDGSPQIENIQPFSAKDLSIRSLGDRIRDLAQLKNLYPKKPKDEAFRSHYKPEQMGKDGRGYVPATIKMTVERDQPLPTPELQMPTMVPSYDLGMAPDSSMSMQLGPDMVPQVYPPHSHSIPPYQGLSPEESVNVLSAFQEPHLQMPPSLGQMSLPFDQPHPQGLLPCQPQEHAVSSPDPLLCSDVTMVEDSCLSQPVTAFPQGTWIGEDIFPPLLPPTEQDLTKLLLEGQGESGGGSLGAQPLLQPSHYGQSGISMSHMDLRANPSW
Assay: Gel mobility shift assay of IL-4 Stat DNA binding in nuclear extract of IL-4 induced Thp-1 cells
Type: biochemical
Details: nuclear extract from IL-4 induced Thp-1 cells

Row | Substance | inhibitory effect on DNA binding by activated IL-4 Stat
1 | NH2-ASS GEE GYKP FQD LI(SEQ ID NO:11)-COOH (H-ASSGEEG[pY]KPFQDLI-OH; SMILES CC[C@H](C)[C@H](NC(=O)[C@H](CC(C)C)NC(=O)[C@H](CC(=O)O)NC(=O)[C@H](CCC(N)=O)NC(=O)[C@H](Cc1ccccc1)NC(=O)[C@@H]1CCCN1C(=O)[C@H](CCCCN)NC(=O)[C@H](Cc1ccc(OP(=O)(O)O)cc1)NC(=O)CNC(=O)[C@H](CCC(=O)O)NC(=O)[C@H](CCC(=O)O)NC(=O)CNC(=O)[C@H](CO)NC(=O)[C@H](CO)NC(=O)[C@H](C)N)C(=O)O) | inhibitory
2 | NH2-GPP GEA GYKA FSS LL(SEQ ID NO:10)-COOH (H-GPPGEAG[pY]KAFSSLL-OH; SMILES CC(C)C[C@H](NC(=O)[C@H](CC(C)C)NC(=O)[C@H](CO)NC(=O)[C@H](CO)NC(=O)[C@H](Cc1ccccc1)NC(=O)[C@H](C)NC(=O)[C@H](CCCCN)NC(=O)[C@H](Cc1ccc(OP(=O)(O)O)cc1)NC(=O)CNC(=O)[C@H](C)NC(=O)[C@H](CCC(=O)O)NC(=O)CNC(=O)[C@@H]1CCCN1C(=O)[C@@H]1CCCN1C(=O)CN)C(=O)O) | inhibitory
